The DeepSol protein solubility set

Assay: soluble on expression in E. coli; label from the status in PepcDB or PDB records

Sequence	soluble on expression in E. coli
KVDKKTYKNLIVELQQRMREIQFALYERKIPLVLVFEGMDAAGKGGNIKRIREKLDPTGYEVNGISAPTDVELKHHYLWRFAKKMPKSGHIEIFDRSWYGRVLVERVEGFASQNEWQRASDEINQFEKMWTDEGTIILKFFLCLDKDEQLKRFKDRENNPDKQWKITEEDWRNREKWDEYLEASHDMIESTNTSYAPWYIVPADHKKTSRIEVLKTIIRKCEEVLWGVKTY	not soluble
KVISPTYQASTQVLVHESDGEENSNLSDIQRNLQYSSTFQSIMKSTALMEEVKAELHLSESASSLKGKVVTSSENESEIINVAVQDHDPAKAAEIANTLVNKFEKEVDERMNVQGVHILSEAKASESPMIKPARLRNM	not soluble
KYQLMANDPVQYKALGKMLGSMGRSDPNEIAPLYFSELMAALKKCATRRTHTNVLQHLCGYLKQTISAEDKQEIQEVIGQYHQGIVPLIVPLTLLKHHFRQHPDPYVALQVYMQPHP	not soluble
LDQILRATVEEVRAFLGTDRVKVYRFDPEGHGTVVAEARGGERLPSLLGLTFPAGDIPEEARRLFRLAQVRVIVDVEAQSRSISQPESWGLSARVPLGEPLQRPVDPCHVHYLKSMGVASSLVVPLMHHQELWGLLVSHHAEPRPYSQEELQVVQLLADQVSIAIAQAELSL	soluble
LEANEGSKTLQRNRKMAMGRKKFNMDPKKGIQFLVENELLQNTPEEIARFLYKGEGLNKTAIGDYLGEREELNLAVLHAFVDLHEFTDLNLVQALRQFLWSFRLPGEAQKIDRMMEAFAQRYCLCNPGVFQSTDTCYVLSYSVIMLNTDLHNPNVRDKMGLERFVAMNRGINEGGDLPEELLRNLYDSIRNEPFKIPEDDGND	soluble
LEILRKNRINEPCIKLNTHSIANKIYATENYIIGIPTDHPDEISDAFTKSVAALLAKSNGIRTPELICFDDSYTIKALDKKLHKIGKAEDGACNLILDMLRLLRLAKDLF	not soluble
LERRWRRRREAGAGAEAAAGSARPLGRQAAAARGSSPEAGAAAMAESIIIRVQSPDGVKRITATKRETAATFLKKVAKEFGFQNNGFSVYINRNKTGEITASSNKSLNLLKIKHGDLLFLFPSSLAGPSSEMETSVPPGFKVFGAPNVVEDEIDQYLSKQDGKIYRSRDPQLCRHGPLGKCVHCVPLEPFDEDYLNHLEPPVKHMSFHAYIRKLTGGADKGKFVALENISCKIKSGCEGHLPWPNGICTKCQPSAITLNRQKYRHVDNIMFENHTVADRFLDFWRKTGNQHFGYLYGRYTEHKDIPLGIRAEVAAIYEPPQIGTQNSLELLEDPKAEVVDEIAAKLGLRKVGWIFTDLVSEDTRKGTVRYSRNKDTYFLSSEECITAGDFQNKHPNMCRLSPDGHFGSKFVTAVATGGPDNQVHFEGYQVSNQCMALVRDECLLPCKDAPELGYAKESSSEQYVPDVFYKDVDKFGNEITQLARPLPVEYLIIDITTTFPKDPVYTFSISQNPFPIENRDVLGETQDFHSLATYLSQNTSSVFLDTISDFHLLLFLVTNEVMPLQDSISLLLEAVRTRNEELAQTWKRSEQWATIEQLCSEYPHPLPRHPVAGAGEQPTLHSSPLPVVPWIPHPAASWQVPSAMQRVETRPPCQARGRLR	soluble
LGLWPVHRLSEEARRISPRQLSQRLQLSPLPAELRELVGAFNGALDRLEQAYVRLESFNADVAHELRTPLTNLIGQTQVALSRERSGEHYEEVLQSNLEELERLRAIVNDMLFLARADQGRLACEREETSLAGEIATTVDFLEVIFDEAGVGIEVRGEARALVERALFQRAVTNLLYNAAQHTAAGGTLRVGVERRGDEVRVAVSNPGVPIADEHRRHLFERFYRVDAARSNSEANHGLGLSIVKAVASMHGGSVFVDSADGWNTFGFTVLSPERRGPGDR	not soluble
LGSMESTQQMAVSIINSSFEAAVVAATSALENMGIEYDYQDIYSRVKNKFDFVMDDSGVKNNPIGKAITIDQALNNKFGSAIRNRNWLADTSRPAKLDEDVNKLRMMLSSKGIDQKMRVLNACFSVKRIPGKSSSIIKCTKLMRDKLERGEVEVDDSFVDEKME	soluble
LKPHIAVAISGSIYNEAVIKEAFHIAQKEHAKFTAIYIDVFEKNRQYKDSQKQVHQHLMLAKSLGAKVKVVYSQTVALGLDEWCKNQDVTKLIIGQHIRNKWRDFFNTPLIDHLMSFEHS	not soluble
LKSSRFHEKILCDIGGVPMFVATARRVSSVDEVCIALDDEKVLSIAKEYGLNAVLTSKDHESGTDRINEACKKLALKDDEIIINVQADEPFIECENLLKFKEFASFCLDKKAFMASCYKKITQEEAMDPNLVKVLCDKEGYALYFSRAKIPYERENYEESFKGHLGIYAYSVKALREFCSLSSSALERAEKLEQLRAIENGKKIKMLEISTTSMGIDTKEDYERALKIYLEK	not soluble
LKVLKRFDIETDYGSAIIADTITGRIEYTVATGGCIFPEVSRTIQTLENMGASVFIASGDSRKFIERLGNIVGVQNKCLMPEAHHKLKRDLILNLKQDGYTVIMVGDASNDILAMEESDLSVITLQNGNVSKKALETAQIKIENISEI	not soluble
LLERVSAEAVTTTLHQVTRERMEDRCRGEYERSFLREFHKWIERVVGWLGKVFLQDGPARPASPEAGNTLRRWRCHVQRFFYRIYASLRIEELFSIVRDFPDSRPAIEDLKYCLERTDQRQQLLVSLKAALETRLLHPGVNTCDIITLYISAIKALRVLDPSMVILEVACEPIRRYLRTREDTVRQIVAGLTGDSDGTGDLAVELSKTDPASLETGQDSEDDSGEPEDWVPDPVDADPGKSSSKRRSSDIISLLVSIYGSKDLFINEYRSLLADRLLHQFSFSPEREIRNVELLKLRFGEAPMHFCEVMLKDMADSRRINANIREEDEKRPAEEQPPFGVYAVILSSEFWPPFKDEKLEVPEDIRAALEAYCKKYEQLKAMRTLSWKHTLGLVTMDVELADRTLSVAVTPVQAVILLYFQDQASWTLEELSKAVKMPVALLRRRMSVWLQQGVLREEPPGTFSVIEEERPQDRDNMVLIDSDDESDSGMASQADQKEEELLLFWTYIQAMLTNLESLSLDRIYNMLRMFVVTGPALAEIDLQELQGYLQKKVRDQQLVYSAGVYRLPKNCS	soluble
LLYIDNIPLVEYNNIIQVEYVVINMLKHGILGLLNYGDMTGYEIMKVFRDSLSFFWTANTSQIYRELNTLKKDGFVTDIVVKQTGKPDKKVFSITESGREELKRWLREYDYGNRNSPLCMKVFFSGELPKEENIERLREIKNEAQQAIERYSSVFETMKIYKGMVARPEDSVYWNMTVEYGIRYMKMLSEWCDCCIKILEDVEK	soluble
LRFQMNTRQFVSCWRSHKDELIATYFDASTDSQVGKAISDLGLNAGQTASLRTVIDGVLTDAFYSLLLGLDGAASIGPVQQPYEIRAEDGSVIRDIEPEAWAQFHDRSA	not soluble
LSPLPRAYQWADGSAYLNHVELVRKARGAEVPASFYTDPLMYQGGSDAFLAPTADIPLRDEAWGLDFEGEVAVVTGDVPLGAPADAKYIRLLMLVNDVTLRGLIPPELAKGFGFFQSKPATAFSPVAVTPDELGDAWDGGKVHLPLLVDYNGAFYGKPDCGVEMQFSFPQLVAHVSKTRELVAGSIVGSGTISNKDRSVGSCCLAEQRMIETIEQGAPKTPFMKVGDTVRIEMRNAAGDSIFGAIEQTVVKHD	not soluble
LTARFTNTELNGYQRLMSYFEEMVKVEDDVCNANKCLLVKLSAEVSDLSEPMRIALRRGADKTIQAMAECIDVGIQDGSIPSGDSALLARQIYYLWNGASLLNKLYQDQEALTQSLTYTQHLLQNTRTCP	not soluble
LTSKLVQAGANVKVIMTESACRFVSPLTFQALSRHEVYTDTFKEQNPSVISHIDAADWADLIIVAPATANVIGKLANGIADDMLTTTLLAATAPVWIAPAMNVHMYDHPAVKRNISVLYQDGYCFIEPSEGYLACGYVGKGRLEEPENIVKLAEKHFAEETSAPLEGKHVVITAGPTREAIDPVRFFTNKSTGKMGYALAEAAVQLGARVILISGPVSLDQPKGLAEFIPVQSAADMREAVLSVYDASDIVIKTAAVADFTPKTVFDHKMKKQDGGMTLELKRTVDILKELGEKKKEQILVGFAAETQDIEHYARKKLAAKNLDLIVANDVKANGAGFGADTNIVTIFFKDGHKRELPIMSKLDVSFEILQEIAALSKQTGERS	not soluble
LTVGDWLDSIRMGRYRDHFAAGGYSSLGMVLRMNAQDVRALGITLMGHQKKILGSIQTMRAQLTSTQG	soluble
LVLQLQINRNPVLFDFNLQLKTNNFANQTSFDELFNEKTNPLNWQFFSKLKVNHLVYEGNDITQLANTLLQSQFNVLQLDLNKSIYRLNLNAMAQRFEHDWVQPLYAKRTQAKIAY	not soluble
LVPEAPAPFEEPLPPEATDQWQDRALCAQTDPEAFFPEKGGSTREAKKICMGCEVRHECLEYALAHDERFGIWGGLSERERRRLKRGII	soluble
LYVGSLHFNITEDMLRGIFEPFGKIDNIVLMKDSDTGRSKGYGFITFSDSECARRALEQLNGFELAGRPMRVGHVTERLDGG	soluble
MAAAAKPNNLSLVVHGPGDLRLENYPIPEPGPNEVLLRMHSVGICGSDVHYWEYGRIGNFIVKKPMVLGHEASGTVEKVGSSVKHLKPGDRVAIEPGAPRENDEFCKMGRYNLSPSIFFCATPPDDGNLCRFYKHNAAFCYKLPDNVTFEEGALIEPLSVGIHACRRGGVTLGHKVLVCGAGPIGMVTLLVAKAMGAAQVVVTDLSATRLSKAKEIGADLVLQISKESPQEIARKVEGQLGCKPEVTIECTGAEASIQAGIYATRSGGTLVLVGLGSEMTTVPLLHAAIREVDIKGVFRYCNTWPVAISMLASKSVNVKPLVTHRFPLEKALEAFETFKKGLGLKIMLKCDPSDQNP	not soluble
MAAAENRVQQVKGILTMAINNGTLWQVIDMRNNERLNCVDMAVRAGSETCAMLITKVAREYAKHRPRSEVEKKFDSMPTTEEDVTISLGPKTADTFDDNYVKELVRQSESASGHAVATKKLSREKISNSLAKGNVAAVQGREYLKMVKRSSSAHSRLMSQRTFSVESGSIDSSEPSTPQLTSPPADHGVFSSVGEKIRNIFGKKPPLHTKSLSVVQTDRIAAPAVRSSSISNKPLSYQTSGNSNEEDHLRLPQHSSSSESPPSEGPSNSGLFRWSSKDKPMTSTVSTANGVRLPPLSLRRRTNSDPKNRDFTSLGGDE	not soluble
MAADLSAYPDRESELTHALAAMRSRLAAAAEAAGRNVGEIELLPITKFFPATDVAILFRLGCRSVGESREQEASAKMAELNRLLAAAELGHSGGVHWHMVGRIQRNKAGSLARWAHTAHSVDSSRLVTALDRAVVAALAEHRRGERLRVYVQVSLDGDGSRGGVDSTTPGAVDRICAQVQESEGLELVGLMGIPPLDWDPDEAFDRLQSEHNRVRAMFPHAIGLSAGMSNDLEVAVKHGSTCVRVGTALLGPRRLRSP	not soluble
MAADYTHFIHRQHAPPEVCLSAFSGHNDALDFPDSEGSPVSQSLIAALQNPALFPHPVEGFQVIETHISWVLLTGPFAYKVKKPVNFGFLDFTSLDAREHFCGEELRLNQRLTEDLYLEVLPITGSAEAPVLGGDGPAIEYVLKMRQFPQSQLLSTLQANSELTTAHIDEMARQIAHFHLNAPKVPAEHEAGTPESVMAPVRQNFEQIRPFLSDKADLQQLEALEAWAETSFERLKPLLAQRKSEGFIRECHGDIHLGNATLIDGKVVIFDCIEFNEPFRFTDVYADTGFLAMDLEDRGLKSLARRFISQYLELTGDYQGLELLNFYKAYRALVRAKVSLFSMPAEATPVQRATTLRQYRNYANLAESYSTIPSRFLAITSGISAVGKSRVAMRLVEALGAVRLRSDVERKRLFGEQQVPNDPHAGIYSSEASSATYARLHEIAETILRAGFPVVIDATYLKRAQRDAAAKVAEATGTPCLIIDCNAPEAVVASWLAQRQADQNDPSDATLEVIANQQATREALTDEELLRSKRIETNESGSLDALVANIRQRLPGLLEHHHHHH	not soluble
